Experimental data from publication doi:10.1101/2022.06.13.495990 (bioRxiv, 2022).

Target: mCherry-RAB28 (UniProt Q99KL7 1-221)
Test: co-IP

B1: FLAG-CFAP418 (natural protein)
chain: MAKDLDELLDEVETKFCRLDPLRLDLGERPKGDGGGGSHSGDRNGAQEKETLRSTETFKKEDDLDSLINEIFEEPDFDRKSFQKFKSKSSSNTCVRAPMQGVSKSCSPVYLSGSAIPCGIGTNTSQRACDRLRCVACDFRIVSYNDYMWDKSCDYLFFRNNMPEFHKLKTKLIEKKGARAYACQCSWRTVEELTDLQTDHQLRWVCGKH
fraction of CFAP418 pulled down: ~0.1%
